± gives the standard deviation of the averaged measurements.
B1: library; a variant is named by its letters at N, in order (parent)
chain: GCUGUCACCGGUGUAUUACCCUAGUGGUCGACCGGUCUGAUGAGUCUNNNNNNAGACGAAACAGC

Key:
hypoxanthine [1] = variants of: B1; assay: normalized RNA/DNA level with ligand (relative to sTRSVctl = 100) (log10 (% of sTRSVctl)); ligand: hypoxanthine (xanthine aptamer); higher = less ribozyme self-cleavage, higher mRNA level; details: ligand concentration (+) RNA-Seq: 5 mM, HEK293T, reporter: mCherry (pCS4076), ligand present: yes
How it was run: (§1)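 HEK293T cells were transfected with library plasmids carrying ribozyme switches linked to an mCherry reporter, or an eGFP reporter in some ligand experiments, at 4 µg per well of a 6-well plate, with any ligand added 1 h beforehand. After 72 h, total RNA was extracted with EDTA, reverse-transcribed, amplified, barcoded and sequenced. RNA level was defined as RNA reads over DNA reads, normalized to a spiked-in non-cleaving sequence or to the top-ranked sequences. That value was multiplied by 100 and converted to log10, the top set was 25 sequences, and only sequences with ≥100 DNA reads were retained.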

hypoxanthine [2] = variants of: B1; assay: normalized RNA/DNA level without ligand (relative to sTRSVctl = 100) (log10 (% of sTRSVctl)); ligand: hypoxanthine (xanthine aptamer); higher = less ribozyme self-cleavage, higher mRNA level; details: HEK293T, reporter: mCherry (pCS4076), ligand present: no
How it was run: as §1

| Variant | normalized RNA/DNA level with ligand (log10) (hypoxanthine [1]) | normalized RNA/DNA level without ligand (log10) (hypoxanthine [2]) |
| --- | --- | --- |
| GCUGUCACCGGUGUAUUACCCUAGUGGUCGACCGGUCUGAUGAGUCUCACGAUAGACGAAACAGC [CACGAU] | 1.95 ± 0.027 | 1.78 ± 0.043 |
| GCUGUCACCGGUGUAUUACCCUAGUGGUCGACCGGUCUGAUGAGUCUCACGACAGACGAAACAGC [CACGAC] | 1.95 ± 0.028 | 1.84 ± 0.0038 |
| GCUGUCACCGGUGUAUUACCCUAGUGGUCGACCGGUCUGAUGAGUCUCACGAGAGACGAAACAGC [CACGAG] | 1.9 ± 0.035 | 1.6 ± 0.026 |
| GCUGUCACCGGUGUAUUACCCUAGUGGUCGACCGGUCUGAUGAGUCUCACGCAAGACGAAACAGC [CACGCA] | 1.92 ± 0.054 | 1.81 ± 0.041 |
| GCUGUCACCGGUGUAUUACCCUAGUGGUCGACCGGUCUGAUGAGUCUCACGCCAGACGAAACAGC [CACGCC] | 1.99 ± 0.047 | 1.839 ± 0.015 |
| GCUGUCACCGGUGUAUUACCCUAGUGGUCGACCGGUCUGAUGAGUCUCACGCGAGACGAAACAGC [CACGCG] | 1.9257 ± 1.5e-05 | 1.88 ± 0.029 |
| GCUGUCACCGGUGUAUUACCCUAGUGGUCGACCGGUCUGAUGAGUCUUACGCUAGACGAAACAGC [UACGCU] | 1.95 ± 0.067 | 1.846 ± 0.012 |
| GCUGUCACCGGUGUAUUACCCUAGUGGUCGACCGGUCUGAUGAGUCUUACGCCAGACGAAACAGC [UACGCC] | 2 ± 0.079 | 1.82 ± 0.036 |
| GCUGUCACCGGUGUAUUACCCUAGUGGUCGACCGGUCUGAUGAGUCUUACGCGAGACGAAACAGC [UACGCG] | 1.893 ± 0.018 | 1.62 ± 0.069 |
| GCUGUCACCGGUGUAUUACCCUAGUGGUCGACCGGUCUGAUGAGUCUAACGAUAGACGAAACAGC [AACGAU] | 1.9 ± 0.028 | 1.653 ± 0.011 |
| GCUGUCACCGGUGUAUUACCCUAGUGGUCGACCGGUCUGAUGAGUCUUACGUUAGACGAAACAGC [UACGUU] | 1.956 ± 0.0074 | 1.86 ± 0.042 |
| GCUGUCACCGGUGUAUUACCCUAGUGGUCGACCGGUCUGAUGAGUCUUACGUCAGACGAAACAGC [UACGUC] | 2.0228 ± 0.00028 | 1.94 ± 0.051 |
| GCUGUCACCGGUGUAUUACCCUAGUGGUCGACCGGUCUGAUGAGUCUUACGUGAGACGAAACAGC [UACGUG] | 1.86 ± 0.063 | 1.6 ± 0.009 |
| GCUGUCACCGGUGUAUUACCCUAGUGGUCGACCGGUCUGAUGAGUCUUACGUAAGACGAAACAGC [UACGUA] | 1.88 ± 0.09 | 1.829 ± 0.004 |
| GCUGUCACCGGUGUAUUACCCUAGUGGUCGACCGGUCUGAUGAGUCUCACGGGAGACGAAACAGC [CACGGG] | 1.84 ± 0.033 | 1.32 ± 0.019 |
| GCUGUCACCGGUGUAUUACCCUAGUGGUCGACCGGUCUGAUGAGUCUCACGGAAGACGAAACAGC [CACGGA] | 1.912 ± 0.0058 | 1.8 ± 0.048 |
| GCUGUCACCGGUGUAUUACCCUAGUGGUCGACCGGUCUGAUGAGUCUCACGGCAGACGAAACAGC [CACGGC] | 1.965 ± 0.003 | 1.87 ± 0.013 |
| GCUGUCACCGGUGUAUUACCCUAGUGGUCGACCGGUCUGAUGAGUCUGACGGUAGACGAAACAGC [GACGGU] | 1.95 ± 0.036 | 1.797 ± 0.0024 |
| GCUGUCACCGGUGUAUUACCCUAGUGGUCGACCGGUCUGAUGAGUCUGACGGAAGACGAAACAGC [GACGGA] | 1.92 ± 0.047 | 1.683 ± 0.0063 |
| GCUGUCACCGGUGUAUUACCCUAGUGGUCGACCGGUCUGAUGAGUCUGACGGCAGACGAAACAGC [GACGGC] | 1.95 ± 0.07 | 1.63 ± 0.055 |
| GCUGUCACCGGUGUAUUACCCUAGUGGUCGACCGGUCUGAUGAGUCUGACGGGAGACGAAACAGC [GACGGG] | 1.885 ± 0.0056 | 1.41 ± 0.039 |

| Variant | normalized RNA/DNA level with ligand (log10) (hypoxanthine [1]) | normalized RNA/DNA level without ligand (log10) (hypoxanthine [2]) |
| --- | --- | --- |
| GCUGUCACCGGUGUAUUACCCUAGUGGUCGACCGGUCUGAUGAGUCUCACUAUAGACGAAACAGC [CACUAU] | 1.908 ± 0.018 | 1.845 ± 0.013 |
| GCUGUCACCGGUGUAUUACCCUAGUGGUCGACCGGUCUGAUGAGUCUCACUACAGACGAAACAGC [CACUAC] | 1.9 ± 0.07 | 1.8 ± 0.034 |
| GCUGUCACCGGUGUAUUACCCUAGUGGUCGACCGGUCUGAUGAGUCUCACUAGAGACGAAACAGC [CACUAG] | 1.901 ± 0.0088 | 1.759 ± 0.0057 |
| GCUGUCACCGGUGUAUUACCCUAGUGGUCGACCGGUCUGAUGAGUCUUACCUUAGACGAAACAGC [UACCUU] | 1.927 ± 0.017 | 1.89 ± 0.054 |
| GCUGUCACCGGUGUAUUACCCUAGUGGUCGACCGGUCUGAUGAGUCUGACUACAGACGAAACAGC [GACUAC] | 1.94 ± 0.026 | 1.804 ± 0.0039 |
| GCUGUCACCGGUGUAUUACCCUAGUGGUCGACCGGUCUGAUGAGUCUGACUAGAGACGAAACAGC [GACUAG] | 1.837 ± 0.011 | 1.47 ± 0.045 |
| GCUGUCACCGGUGUAUUACCCUAGUGGUCGACCGGUCUGAUGAGUCUUACUACAGACGAAACAGC [UACUAC] | 1.95 ± 0.056 | 1.926 ± 0.0063 |
| GCUGUCACCGGUGUAUUACCCUAGUGGUCGACCGGUCUGAUGAGUCUGACGCGAGACGAAACAGC [GACGCG] | 1.872 ± 0.0041 | 1.51 ± 0.11 |
| GCUGUCACCGGUGUAUUACCCUAGUGGUCGACCGGUCUGAUGAGUCUGACGCCAGACGAAACAGC [GACGCC] | 1.9 ± 0.04 | 1.79 ± 0.054 |
| GCUGUCACCGGUGUAUUACCCUAGUGGUCGACCGGUCUGAUGAGUCUGACGCAAGACGAAACAGC [GACGCA] | 1.91 ± 0.052 | 1.82 ± 0.034 |
| GCUGUCACCGGUGUAUUACCCUAGUGGUCGACCGGUCUGAUGAGUCUAACGUUAGACGAAACAGC [AACGUU] | 1.91 ± 0.0075 | 1.829 ± 0.017 |
| GCUGUCACCGGUGUAUUACCCUAGUGGUCGACCGGUCUGAUGAGUCUGACGUAAGACGAAACAGC [GACGUA] | 1.92 ± 0.033 | 1.773 ± 0.0082 |
| GCUGUCACCGGUGUAUUACCCUAGUGGUCGACCGGUCUGAUGAGUCUGACGUGAGACGAAACAGC [GACGUG] | 1.83 ± 0.095 | 1.29 ± 0.024 |
| GCUGUCACCGGUGUAUUACCCUAGUGGUCGACCGGUCUGAUGAGUCUGACGUCAGACGAAACAGC [GACGUC] | 1.95 ± 0.046 | 1.85 ± 0.019 |
| GCUGUCACCGGUGUAUUACCCUAGUGGUCGACCGGUCUGAUGAGUCUGACCUUAGACGAAACAGC [GACCUU] | 1.95 ± 0.033 | 1.885 ± 0.015 |
| GCUGUCACCGGUGUAUUACCCUAGUGGUCGACCGGUCUGAUGAGUCUAACGCAAGACGAAACAGC [AACGCA] | 1.9072 ± 0.0004 | 1.76 ± 0.03 |
| GCUGUCACCGGUGUAUUACCCUAGUGGUCGACCGGUCUGAUGAGUCUUACGACAGACGAAACAGC [UACGAC] | 1.9194 ± 0.00024 | 1.804 ± 0.0045 |
| GCUGUCACCGGUGUAUUACCCUAGUGGUCGACCGGUCUGAUGAGUCUUACGGUAGACGAAACAGC [UACGGU] | 1.847 ± 0.0077 | 1.59 ± 0.064 |
| GCUGUCACCGGUGUAUUACCCUAGUGGUCGACCGGUCUGAUGAGUCUCACGUCAGACGAAACAGC [CACGUC] | 1.98 ± 0.061 | 1.971 ± 0.005 |
| GCUGUCACCGGUGUAUUACCCUAGUGGUCGACCGGUCUGAUGAGUCUCACGUGAGACGAAACAGC [CACGUG] | 1.92 ± 0.028 | 1.79 ± 0.095 |
| GCUGUCACCGGUGUAUUACCCUAGUGGUCGACCGGUCUGAUGAGUCUCACGUUAGACGAAACAGC [CACGUU] | 1.96 ± 0.024 | 1.864 ± 0.0061 |

— the supplement of paper PMC6757056
